According to the supplement of paper PMC11246515:
± gives the standard deviation of the averaged measurements.

Assay: total protein half-life in vivo (active degradation + dilution); higher = more stable protein
[1] = E. coli NCM3722 delta-clpP delta-lon delta-hslV, growth: N-lim chemostat, doubling time 6 h
[2] = E. coli NCM3722 delta-clpP, growth: N-lim chemostat, doubling time 6 h
[3] = E. coli NCM3722 delta-hslV, growth: N-lim chemostat, doubling time 6 h
[4] = E. coli NCM3722 delta-lon, growth: N-lim chemostat, doubling time 6 h
[5] = E. coli NCM3722 delta-smpB, growth: N-lim chemostat, doubling time 6 h
[6] = wild type E. coli NCM3722, growth: C-lim chemostat, doubling time 3 h
[7] = wild type E. coli NCM3722, growth: C-lim chemostat, doubling time 6 h
[8] = wild type E. coli NCM3722, growth: C-lim chemostat, doubling time 12 h
[9] = wild type E. coli NCM3722, growth: N-lim chemostat, doubling time 6 h
[10] = wild type E. coli NCM3722, growth: N-lim chemostat, doubling time 12 h
[11] = wild type E. coli NCM3722, growth: P-lim chemostat, doubling time 6 h
[12] = wild type E. coli NCM3722, growth: P-lim chemostat, doubling time 12 h

MIERGKFRSLTLINWNGFFARTFDLDELVTTLSGGNGAGKSTTMAAFVTALIPDLTLLHFRNTTEAGATSGSRDKGLHGKLKAGVCYSMLDTINSRHQRVVVGVRLQQVAGRDRKVDIKPFAIQGLPMSVQPTQLVTETLNERQARVLPLNELKDKLEAMEGVQFKQFNSITDYHSLMFDLGIIARRLRSASDRSKFYRLIEASLYGGISSAITRSLRDYLLPENSGVRKAFQDMEAALRENRMTLEAIRVTQSDRDLFKHLISEATNYVAADYMRHANERRVHLDKALEFRRELHTSRQQLAAEQYKHVDMARELAEHNGAEGDLEADYQAASDHLNLVQTALRQQEKIERYEADLDELQIRLEEQNEVVAEAIERQQENEARAEAAELEVDELKSQLADYQQALDVQQTRAIQYNQAIAALNRAKELCHLPDLTADCAAEWLETFQAKELEATEKMLSLEQKMSMAQTAHSQFEQAYQLVVAINGPLARNEAWDVARELLREGVDQRHLAEQVQPLRMRLSELEQRLREQQEAERLLADFCKRQGKNFDIDELEALHQELEARIASLSDSVSNAREERMALRQEQEQLQSRIQSLMQRAPVWLAAQNSLNQLSEQCGEEFTSSQDVTEYLQQLLEREREAIVERDEVGARKNAVDEEIERLSQPGGSEDQRLNALAERFGGVLLSEIYDDVSLEDAPYFSALYGPSRHAIVVPDLSQVTEHLEGLTDCPEDLYLIEGDPQSFDDSVFSVDELEKAVVVKIADRQWRYSRFPEVPLFGRAARESRIESLHAEREVLSERFATLSFDVQKTQRLHQAFSRFIGSHLAVAFESDPEAEIRQLNSRRVELERALSNHENDNQQQRIQFEQAKEGVTALNRILPRLNLLADDSLADRVDEIRERLDEAQEAARFVQQFGNQLAKLEPIVSVLQSDPEQFEQLKEDYAYSQQMQRDARQQAFALTEVVQRRAHFSYSDSAEMLSGNSDLNEKLRERLEQAEAERTRAREALRGHAAQLSQYNQVLASLKSSYDTKKELLNDLQRELQDIGVRADSGAEERARIRRDELHAQLSNNRSRRNQLEKALTFCEAEMDNLTRKLRKLERDYFEMREQVVTAKAGWCAVMRMVKDNGVERRLHRRELAYLSADDLRSMSDKALGALRLAVADNEHLRDVLRMSEDPKRPERKIQFFVAVYQHLRERIRQDIIRTDDPVEAIEQMEIELSRLTEELTSREQKLAISSRSVANIIRKTIQREQNRIRMLNQGLQNVSFGQVNSVRLNVNVRETHAMLLDVLSEQHEQHQDLFNSNRLTFSEALAKLYQRLNPQIDMGQRTPQTIGEELLDYRNYLEMEVEVNRGSDGWLRAESGALSTGEAIGTGMSILVMVVQSWEDESRRLRGKDISPCRLLFLDEAARLDARSIATLFELCERLQMQLIIAAPENISPEKGTTYKLVRKVFQNTEHVHVVGLRGFAPQLPETLPGTDEAPSQAS
total protein half-life in vivo [1]: 6.61 ± 0.52 h | total protein half-life in vivo [2]: 6.45 ± 0.38 h | total protein half-life in vivo [3]: 4.36 ± 0.13 h | total protein half-life in vivo [4]: 4.16 ± 0.34 h | total protein half-life in vivo [5]: 4.2 ± 0.079 h | total protein half-life in vivo [6]: 2.91 ± 0.16 h | total protein half-life in vivo [7]: 5.16 ± 0.064 h | total protein half-life in vivo [8]: 8.24 ± 0.095 h | total protein half-life in vivo [9]: 4.374 ± 0.017 h | total protein half-life in vivo [10]: 5.78 ± 0.3 h | total protein half-life in vivo [11]: 4.74 ± 0.084 h | total protein half-life in vivo [12]: 6.65 ± 0.25 h

MIETLLEVRNLSKTFRYRTGWFRRQTVEAVKPLSFTLREGQTLAIIGENGSGKSTLAKMLAGMIEPTSGELLIDDHPLHFGDYSFRSQRIRMIFQDPSTSLNPRQRISQILDFPLRLNTDLEPEQRRKQIIETMRMVGLLPDHVSYYPHMLAPGQKQRLGLARALILRPKVIIADEALASLDMSMRSQLINLMLELQEKQGISYIYVTQHIGMMKHISDQVLVMHQGEVVERGSTADVLASPLHELTKRLIAGHFGEALTADAWRKDR [P0AAH8]
total protein half-life in vivo [1]: 5.82 ± 0.14 h | total protein half-life in vivo [2]: 5.86 ± 0.16 h | total protein half-life in vivo [3]: 5.99 ± 0.16 h | total protein half-life in vivo [4]: 5.26 ± 1.3 h | total protein half-life in vivo [5]: 5.78 ± 0.3 h | total protein half-life in vivo [6]: 2.97 ± 0.16 h | total protein half-life in vivo [7]: 5.78 ± 0.22 h | total protein half-life in vivo [8]: 11.5 ± 2.9 h | total protein half-life in vivo [9]: 5.53 ± 0.077 h | total protein half-life in vivo [10]: 12.1 ± 1.1 h | total protein half-life in vivo [11]: 6.03 ± 0.55 h | total protein half-life in vivo [12]: 12.51 ± 0.086 h

MIFTSSCCDNLSIDEIIERAEKGDCEAQYIVGFYYNRDSAIDSPDDEKAFYWLKLAAEQGHCEAQYSLGQKYTEDKSRHKDNEQAIFWLKKAALQGHTFASNALGWTLDRGEAPNYKEAVVWYQIAAESGMSYAQNNLGWMYRNGNGVAKDYALAFFWYKQAALQGHSDAQNNLADLYEDGKGVAQNKTLAAFWYLKSAQQGNRHAQFQIAWDYNAGEGVDQDYKQAMYWYLKAAAQGSVGAYVNIGYMYKHGQGVEKDYQAAFEWFTKAAECNDATAWYNLAIMYHYGEGRPVDLRQALDLYRKVQSSGTRDVSQEIRETEDLL
total protein half-life in vivo [1]: 6.2 h

MIGRLRGIIIEKQPPLVLIEVGGVGYEVHMPMTCFYELPEAGQEAIVFTHFVVREDAQLLYGFNNKQERTLFKELIKTNGVGPKLALAILSGMSAQQFVNAVEREEVGALVKLPGIGKKTAERLIVEMKDRFKGLHGDLFTPAADLVLTSPASPATDDAEQEAVAALVALGYKPQEASRMVSKIARPDASSETLIREALRAAL [P0A809]
total protein half-life in vivo [1]: 5.02 ± 0.64 h | total protein half-life in vivo [2]: 4.88 ± 0.9 h | total protein half-life in vivo [3]: 5.46 ± 0.47 h | total protein half-life in vivo [4]: 4.88 ± 0.49 h | total protein half-life in vivo [5]: 5.59 ± 0.069 h | total protein half-life in vivo [6]: 2.99 ± 0.28 h | total protein half-life in vivo [7]: 5.04 ± 0.43 h | total protein half-life in vivo [8]: 10.3 ± 3.1 h | total protein half-life in vivo [9]: 4.95 ± 0.26 h | total protein half-life in vivo [10]: 7.6 ± 0.43 h | total protein half-life in vivo [11]: 3.73 ± 0.86 h | total protein half-life in vivo [12]: 10.13 ± 0.068 h

MIIPALDLIDGTVVRLHQGDYGKQRDYGNDPLPRLQDYAAQGAEVLHLVDLTGAKDPAKRQIPLIKTLVAGVNVPVQVGGGVRSEEDVAALLEAGVARVVVGSTAVKSQDMVKGWFERFGADALVLALDVRIDEQGNKQVAVSGWQENSGVSLEQLVETYLPVGLKHVLCTDISRDGTLAGSNVSLYEEVCARYPQVAFQSSGGIGDIDDVAALRGTGVRGVIVGRALLEGKFTVKEAIACWQNA
total protein half-life in vivo [1]: 4.64 ± 0.11 h | total protein half-life in vivo [2]: 3.46 ± 0.32 h | total protein half-life in vivo [3]: 4.07 ± 0.29 h | total protein half-life in vivo [4]: 4.52 ± 0.096 h | total protein half-life in vivo [5]: 3.23 ± 0.34 h | total protein half-life in vivo [6]: 3.21 ± 0.094 h | total protein half-life in vivo [7]: 5.72 ± 0.66 h | total protein half-life in vivo [8]: 10 ± 1.4 h | total protein half-life in vivo [9]: 3.66 ± 0.097 h | total protein half-life in vivo [10]: 5.29 ± 0.65 h | total protein half-life in vivo [11]: 5.28 ± 0.072 h | total protein half-life in vivo [12]: 9.43 ± 0.71 h

MIIRDENYFTDKYELTRTHSEVLEAVKVVKPGKTLDLGCGNGRNSLYLAANGYDVDAWDKNAMSIANVERIKSIENLDNLHTRVVDLNNLTFDRQYDFILSTVVLMFLEAKTIPGLIANMQRCTKPGGYNLIVAAMDTADYPCTVGFPFAFKEGELRRYYEGWERVKYNEDVGELHRTDANGNRIKLRFATMLARKK
total protein half-life in vivo [1]: 5.25 ± 0.98 h | total protein half-life in vivo [2]: 4.08 ± 0.48 h | total protein half-life in vivo [3]: 4.13 ± 0.29 h | total protein half-life in vivo [4]: 5.98 ± 0.65 h | total protein half-life in vivo [5]: 3.94 ± 0.12 h | total protein half-life in vivo [6]: 2.93 ± 0.1 h | total protein half-life in vivo [7]: 5.19 ± 0.19 h | total protein half-life in vivo [8]: 8.23 ± 1.5 h | total protein half-life in vivo [9]: 4.09 ± 0.12 h | total protein half-life in vivo [10]: 6.9 ± 0.16 h | total protein half-life in vivo [11]: 6.01 ± 0.67 h | total protein half-life in vivo [12]: 11 ± 0.36 h

MIKFLSALILLLVTTAAQAERIRDLTSVQGVRQNSLIGYGLVVGLDGTGDQTTQTPFTTQTLNNMLSQLGITVPTGTNMQLKNVAAVMVTASLPPFGRQGQTIDVVVSSMGNAKSLRGGTLLMTPLKGVDSQVYALAQGNILVGGAGASAGGSSVQVNQLNGGRITNGAVIERELPSQFGVGNTLNLQLNDEDFSMAQQIADTINRVRGYGSATALDARTIQVRVPSGNSSQVRFLADIQNMQVNVTPQDAKVVINSRTGSVVMNREVTLDSCAVAQGNLSVTVNRQANVSQPDTPFGGGQTVVTPQTQIDLRQSGGSLQSVRSSASLNNVVRALNALGATPMDLMSILQSMQSAGCLRAKLEII [P0A6S3]
total protein half-life in vivo [6]: 2.203 ± 0.022 h | total protein half-life in vivo [7]: 4.68 h | total protein half-life in vivo [8]: 8.58 ± 1.3 h

MIKHLVAPLVFTSLILTGCQSPQGKFTPEQVAAMQSYGFTESAGDWSLGLSDAILFAKNDYKLLPESQQQIQTMAAKLASTGLTHARMDGHTDNYGEDSYNEGLSLKRANVVADAWAMGGQIPRSNLTTQGLGKKYPIASNKTAQGRAENRRVAVVITTP
total protein half-life in vivo [1]: 1.39 h | total protein half-life in vivo [6]: 0.967 h | total protein half-life in vivo [9]: 1.84 h | total protein half-life in vivo [11]: 1.9 h | total protein half-life in vivo [12]: 4.97 h
